According to article doi:10.1101/2023.06.06.543845 (bioRxiv, 2023):

Columns and labels:
[1] = target: the molecule itself; assay: crystal structure
[2] = target: T1, Mycobacterium tuberculosis NrdI (Mycobacterium tuberculosis, UniProt P9WIZ3); assay: crystal structure
T1 sequence: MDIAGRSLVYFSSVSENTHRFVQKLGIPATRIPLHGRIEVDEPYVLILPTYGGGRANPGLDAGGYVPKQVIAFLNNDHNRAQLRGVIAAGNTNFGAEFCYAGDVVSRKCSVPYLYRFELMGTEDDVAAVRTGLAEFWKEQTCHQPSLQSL

B1: Mycobacterium tuberculosis NrdF2 (R2 subunit of the Class Ib ribonucleotide reductase) (enzyme)
chain: TGNAKLIDRVSAINWNRLQDEKDAEVWDRLTGNFWLPEKVPVSNDIPSWGTLTAGEKQLTMRVFTGLTMLDTIQGTVGAVSLIPDALTPHEEAVLTNIAFMESVHAKSYSQIFSTLCSTAEIDDAFRWSEENRNLQRKAEIVLQYYRGDEPLKRKVASTLLESFLFYSGFYLPMYWSSRAKLTNTADMIRLIIRDEAVHGYYIGYKFQRGLALVDDVTRAELKDYTYELLFELYDNEVEYTQDLYDEVGLTEDVKKFLRYNANKALMNLGYEALFPRDETDVNPAILSALSPNADENHDFFSGSGSSYVIGKAVVTEDDDWDF
- stoichiometry N [1]: 2
- stoichiometry N [2]: 2 NrdF2 per NrdI
